Test results reported in PMC534114.

Target: Gab1^F627/659 (Y627F/Y659F) (mouse) (UniProt Q9QYY0)
UniProt Q9QYY0, sequence (Q9QYY0 whole entry, stated change not applied): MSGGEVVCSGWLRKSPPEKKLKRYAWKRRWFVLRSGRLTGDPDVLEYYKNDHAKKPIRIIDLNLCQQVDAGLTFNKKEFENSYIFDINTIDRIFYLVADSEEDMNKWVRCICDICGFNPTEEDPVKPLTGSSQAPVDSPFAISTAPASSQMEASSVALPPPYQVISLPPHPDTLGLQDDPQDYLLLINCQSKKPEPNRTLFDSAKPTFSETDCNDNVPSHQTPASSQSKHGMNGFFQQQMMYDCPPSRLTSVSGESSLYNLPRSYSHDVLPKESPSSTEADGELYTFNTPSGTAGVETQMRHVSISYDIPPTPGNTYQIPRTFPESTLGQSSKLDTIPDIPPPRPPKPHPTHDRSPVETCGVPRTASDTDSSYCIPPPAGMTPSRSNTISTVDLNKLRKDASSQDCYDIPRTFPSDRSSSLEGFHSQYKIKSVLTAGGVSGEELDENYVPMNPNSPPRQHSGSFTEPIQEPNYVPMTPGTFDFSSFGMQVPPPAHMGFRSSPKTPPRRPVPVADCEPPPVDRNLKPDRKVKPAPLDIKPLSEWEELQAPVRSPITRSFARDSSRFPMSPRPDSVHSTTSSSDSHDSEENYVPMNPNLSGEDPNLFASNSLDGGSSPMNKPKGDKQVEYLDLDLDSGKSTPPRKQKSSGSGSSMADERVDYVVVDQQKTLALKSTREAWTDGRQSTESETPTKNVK

Gab1-associated PI-3 kinase activity in anti-Gab1 immunoprecipitates after EGF treatment (100 ng/ml, five minutes), relative to wild type Gab1: 2 fold
basal PI-3 kinase activity in anti-Gab1 immunoprecipitates (PIP3 production), relative to wild type Gab1: 1.6 fold
Substance: p85, the regulatory subunit of PI-3 kinase (from UniProt P26450 1-724) (natural protein)
